Experimental data as given in patent CN115710309A (INST PASTEUR SHANGHAI CAS, dated 2023).

Columns and labels:
Test in all cases: cell-based or functional assay
SARS-CoV-2 S蛋白 (野生型假病毒) [1] = target: SARS-CoV-2 S蛋白 (野生型假病毒) (SARS-CoV-2, UniProt P0DTC2 14-1273)
[2] = target: SARS-CoV-2活病毒nCoV-SH01株的S蛋白 (SARS-CoV-2, UniProt P0DTC2 14-1273)
SARS-CoV-2 S蛋白 (野生型假病毒) [3] = target: SARS-CoV-2 S蛋白 (野生型假病毒) (SARS-CoV-2, UniProt P0DTC2 14-1273); remark: listed apart in the source

B1: 单抗2G3 (antibody)
heavy: QVQLQQPGAELVKPGASVKMSCKASGYTFTTYTIHWLRQTPGQGLEWIGAIYPGIGDTSYNQSFKGKATLTADKSSSTAYMQLSSLTSEDSAVYYCARDGNYAPFTYWGQGTLVTVSAAKTTPPSVYPLAPGSAAQTNSMVTLGCLVKGYFPEPVTVTWNSGSLSSGVHTFPAVLQSDLYTLSSSVTVPSSTWPSETVTCNVAHPASSTKVDKKIVPRDCGCKPCICTVPEVSSVFIFPPKPKDVLTITLTPKVTCVVVDISKDDPEVQFSWFVDDVEVHTAQTQPREEQFNSTFRSVSELPIMHQDWLNGKEFKCRVNSAAFPAPIEKTISKTKGRPKAPQVYTIPPPKEQMAKDKVSLTCMITDFFPEDITVEWQWNGQPAENYKNTQPIMDTDGSYFVYSKLNVQKSNWEAGNTFTCSVLHEGLHNHHTEKSLSHSPGK
light: DIVMSQSPSSLAVSVGEKVTMSCKSSQSLLYSNNQKNYLAWYQQKPGQSPKLLIYWTSTRESGVPDRFTGSGSGTDFTLTINSVKAEDLAVYYCQQYYRYPLTVGAGTKLELKRADAAPTVSIFPPSSEQLTSGGASVVCFLNNFYPKDINVKWKIDGSERQNGVLNSWTDQDSKDSTYSMSSTLTLTKDEYERHNSYTCEATHKTSTSPIVKSFNRNEC
- 假病毒中和试验 半数抑制浓度(IC50) (SARS-CoV-2 S蛋白 (野生型假病毒) [1]): 7 ng/mL
- 活病毒中和 IC50 [2]: 32 ng/mL

B2: 单抗8D3 (antibody, V domains shown)
VH: EVQLQQSGPELVKPGASVKISCKTSGYTFTEYTMYWVKQSHGKSLEWIGGINPNIGDTSYNQNFKGKATLTVDRSSSTAYMELRSLTSEDSAVYYCARDGYPYYYALDHWGQGTSVTVSS
VL: DIVMTQSQKFMSTSVGDRVSVTCKASQNVGTNVAWYQQKPGQSPKALIYSTSYRYSGVPDRFTGSGSGTDFTLTISNVQSEDLAEYFCQQYNSYPYTFGGGTKLEIKR
- 假病毒中和试验 半数抑制浓度(IC50) (SARS-CoV-2 S蛋白 (野生型假病毒) [1]): 7 ng/mL
- 活病毒中和 IC50 [2]: 71 ng/mL

B3: 单抗3A2 (antibody, V domains shown)
VH: QVTLKESGPGILQPSQTLSLTCSFSGFSLSTSGMGVSWIRQPSGKGLEWLAHIYWDDDKRYNPSLKSRLTISKDTSSSQVFLKITSVDTVDTATYYCARRGPLITTDGTFDVWGAGTTVTVSS
VL: DIVMTQSRKFMSTSVGDRVSITCKASQDVGTSVAWYQQKPGQSPKLLIYWASTRHTGVPDRFTGSGSGTDFTLTINSVQSEDLADYFCQQYSSYPYTFGGGTKLEMK
- 假病毒中和试验 半数抑制浓度(IC50) (SARS-CoV-2 S蛋白 (野生型假病毒) [3]): 49 ng/mL
